Test results reported in PMC6318249, “DNA Binding and Phosphorylation Regulate the Core Structure of the NF-κB p50 Transcription Factor” (Journal of the American Society for Mass Spectrometry, 2018).
Each block holds one molecule with its values, some of them ahead of it.

Assays:
[1] = target: Murine NF-κB p50 (39-364) S65D (murine) (UniProt P25799); assay: native MS; native IM-MS of p50 (39-364) WT and Ser to Asp variants, no DNA; 100 mM NH4OAc, typically 5 μM; percentage peak areas of monomer and dimer by multi-Gaussian fitting
[2] = target: Murine NF-κB p50 (39-364) S242D (murine) (UniProt P25799); assay: as above
[3] = target: Murine NF-κB p50 (39-364) S248D (murine) (UniProt P25799); assay: as above
[4] = target: Murine NF-κB p50 (39-364) S337D (murine) (UniProt P25799); assay: SEC; size exclusion chromatography of p50 (39-364); monomer measured by protein staining and densitometry
[5] = target: Murine NF-κB p50 (39-364) S337D (murine) (UniProt P25799); assay: native MS; native IM-MS of p50 (39-364) WT and Ser to Asp variants, no DNA; 100 mM NH4OAc, typically 5 μM; percentage peak areas of monomer and dimer by multi-Gaussian fitting
[6] = target: Murine NF-κB p50 (39-364) wild-type (murine) (UniProt P25799); assay: as above
[7] = target: p50 (35-381, Enzo Scientific) 35-381 (UniProt P19838); assay: native nESI-MS, monomer:dimer ratio, no DNA; settings: reference: p50 before phosphorylation; sites S328,S337
[8] = target: p50 (35-381, Enzo Scientific) 35-381 (UniProt P19838); assay: native nESI-MS, monomer:dimer, with κB DNA; settings: reference: non-phosphorylated p50 plus DNA; sites S328,S337
p50 S248D = p50 S248D (Mus musculus, UniProt P25799 39-364, S246D); assay: native MS titration; KD: 3 uM p50 with 0.2-6 uM DNA in 300 mM NH4OAc, 5 min, room temperature, 10 uL, pH not stated; native nESI-(IM-)MS; settings: protein: recombinant; tags: His6-MBP removed by 3C protease; chain copies: 2; blunt; strand is self-complementary
Sequence of p50 S248D (P25799 39-364 S246D): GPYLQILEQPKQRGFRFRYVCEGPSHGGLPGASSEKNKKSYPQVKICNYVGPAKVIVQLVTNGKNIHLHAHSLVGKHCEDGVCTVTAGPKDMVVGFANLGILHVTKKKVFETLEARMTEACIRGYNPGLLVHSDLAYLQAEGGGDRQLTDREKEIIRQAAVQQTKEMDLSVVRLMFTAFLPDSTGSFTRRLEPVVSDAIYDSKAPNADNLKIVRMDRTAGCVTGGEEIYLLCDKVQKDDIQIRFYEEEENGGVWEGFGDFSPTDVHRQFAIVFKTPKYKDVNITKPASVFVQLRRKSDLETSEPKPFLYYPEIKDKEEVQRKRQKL

p50 WT = p50 WT (Mus musculus, UniProt P25799 39-364); assay: as above; settings: protein: recombinant; tags: His6-MBP removed by 3C protease; chain copies: 2; blunt; strand is self-complementary
Sequence of p50 WT (P25799 39-364): as the sequence (P25799 39-364 S246D) above, with D208S counted along it

p50 S65D = p50 S65D (Mus musculus, UniProt P25799 39-364, S63D); assay: as above; settings: protein: recombinant; tags: His6-MBP removed by 3C protease; chain copies: 2; blunt; strand is self-complementary
Sequence of p50 S65D (P25799 39-364 S63D): as the sequence (P25799 39-364 S246D) above, with S25D, D208S counted along it

p50 S242D = p50 S242D (Mus musculus, UniProt P25799 39-364, S240D); assay: as above; settings: protein: recombinant; tags: His6-MBP removed by 3C protease; chain copies: 2; blunt; strand is self-complementary
Sequence of p50 S242D (P25799 39-364 S240D): as the sequence (P25799 39-364 S246D) above, with S202D, D208S counted along it

p50 S337D = p50 S337D (Mus musculus, UniProt P25799 39-364, S335D); assay: as above; settings: protein: recombinant; tags: His6-MBP removed by 3C protease; chain copies: 2; blunt; strand is self-complementary
Sequence of p50 S337D (P25799 39-364 S335D): as the sequence (P25799 39-364 S246D) above, with D208S, S297D counted along it

[9] = target: the molecule itself; assay: native MS; nano-ESI native MS of p50 (35-381) before and after in vitro phosphorylation with PKAc or Chk1; 100 mM NH4OAc, typically 5 μM; without and with the κB DNA oligomer; monomer and dimer charge states compared

Molecule: Murine NF-κB p50 (39-364) S65D (from UniProt P25799 39-364) (domain or fragment)
percentage peak area of dimer [1]: 90.6%
percentage peak area of monomer [1]: 9.4%
stoichiometry N [1]: 2

Molecule: Murine NF-κB p50 (39-364) S337D (from UniProt P25799 39-364) (domain or fragment)
fold increase in monomer relative to WT p50 [4]: 5 fold
percentage peak area of dimer [5]: 74.8%
percentage peak area of monomer [5]: 25.2%
stoichiometry N [5]: 2

B1: kB DNA oligomer (KD determination) (dsDNA)
DNA 1: CCCCCGGGGGCCCCCGGGGG
DNA 2: CCCCCGGGGGCCCCCGGGGG
Kd (p50 S248D): 112 ± 11 nM
Kd (p50 WT): 37 ± 7 nM
Kd (p50 S65D): 140 ± 16 nM
Kd (p50 S242D): 424 ± 78 nM
Kd (p50 S337D): 111 ± 15 nM

B2: NF-κB p50 (35-381), non-phosphorylated (domain or fragment, UniProt P19838 35-381, looked up)
chain: MALPTDGPYLQILEQPKQRGFRFRYVCEGPSHGGLPGASSEKNKKSYPQVKICNYVGPAKVIVQLVTNGKNIHLHAHSLVGKHCEDGICTVTAGPKDMVVGFANLGILHVTKKKVFETLEARMTEACIRGYNPGLLVHPDLAYLQAEGGGDRQLGDREKELIRQAALQQTKEMDLSVVRLMFTAFLPDSTGSFTRRLEPVVSDAIYDSKAPNASNLKIVRMDRTAGCVTGGEEIYLLCDKVQKDDIQIRFYEEEENGGVWEGFGDFSPTDVHRQFAIVFKTPKYKDINITKPASVFVQLRRKSDLETSEPKPFLYYPEIKDKEEVQRKRQKLMPNFSDSFGGGSGAG
notes: NF-κB p50, the proteolytic product of p105 (NF-κB1), residues 35-381; also called recombinant p50 (35-381); source: bought: Enzo Scientific
stoichiometry N [9]: 2

More lines, now with the values ahead:

percentage peak area of dimer [2]: 87.6%
percentage peak area of monomer [2]: 12.4%
stoichiometry N [2]: 2
Molecule: Murine NF-κB p50 (39-364) S242D (from UniProt P25799 39-364) (domain or fragment)

percentage peak area of dimer [3]: 94.2%
percentage peak area of monomer [3]: 5.8%
stoichiometry N [3]: 2
Molecule: Murine NF-κB p50 (39-364) S248D (from UniProt P25799 39-364) (domain or fragment)

percentage peak area of dimer [6]: 89.5%
percentage peak area of monomer [6]: 10.5%
stoichiometry N [6]: 2
Molecule: Murine NF-κB p50 (39-364) wild-type (from UniProt P25799 39-364) (domain or fragment)

binding against the reference [7]: weaker
Molecule: p50 (35-381, Enzo Scientific) 35-381 (from UniProt P19838) PKAc-phosphorylated p50

binding against the reference [8]: same
Molecule: p50 (35-381, Enzo Scientific) 35-381 (from UniProt P19838) PKAc-phosphorylated p50 plus DNA
